The source of these data is US20250163146A1 (published 2025).

The assay addresses Nb.d4C4-1. As to the kind of experiment: SPR. In general terms: SPR reads the build-up and loss of mass on a sensor chip optically.

B1: hDLL4(N-EGF5) (ligand)
chain: SGVFQLQLQEFINERGVLASGRPCEPGCRTFFRVCLKHFQAVVSPGPCTFGTVSTPVLGTNSFAVRDDSSGGGRNPLQLPFNFTWPGTFSLIIEAWHAPGDDLRPEALPPDALISKIAIQGSLAVGQNWLLDEQTSTLTRLRYSYRVICSDNYYGDNCSRLCKKRNDHFGHYVCQPDGNLSCLPGWTGEYCQQPICLSGCHEQNGYCSKPAECLCRPGWQGRLCNECIPHNGCRHGTCSTPWQCTCDEGWGGLFCDQDLNYCTHHSPCKNGATCSNSGQRSYTCTCRPGYTGVDCELELSECDSNPCRNGGSCKDQEDGYHCLCPPGYYGLHCEHSTLSCADSPCFNGGSCRERNQGANYACECPPNFTGSNCEK
modifications: biotinylated in the flow cytometry titration (site not stated); not stated for the plate-coated protein
Molecule B1 came in with a Kd of 1.43 nM.

B2: mDll4(N-EGF3) (ligand)
chain: GSGIFQLRLQEFVNQRGMLANGQSCEPGCRTFFRICLKHFQATFSEGPCTFGNVSTPVLGTNSFVVRDKNSGSGRNPLQLPFNFTWPGTFSLNIQAWHTPGDDLRPETSPGNSLISQIIIQGSLAVGKIWRTDEQNDTLTRLSYSYRVICSDNYYGESCSRLCKKRDDHFGHYECQPDGSLSCLPGWTGKYCDQPICLSGCHEQNGYCSKPDECICRPGWQGRLCNECIPHNGCRHGTCSIPWQCACDEGWGGLFCDQDLNYCTHHSPCKNGSTCSNSGPKGYTCTCLPGYTGEHCEL
modifications: biotinylated (site not stated)
Molecule B2 came in with a Kd of 1.63 nM.

A word on the Kd: it is the free concentration of one partner at which half of the binding sites on the other are occupied at equilibrium, for simple one-to-one binding. The low end stands for higher affinity, the high end for lower affinity.
